{"source": "paper PMC9331743", "about": "“Portable Vertical Graphene@Au-Based Electrochemical Aptasensing Platform for Point-of-Care Testing of Tau Protein in the Blood”", "biological_target": "Tau441 (tau protein) (UniProt P10636-8 1-441)", "sequence (P10636 other isoform, or with tags, fused parts or gaps)": "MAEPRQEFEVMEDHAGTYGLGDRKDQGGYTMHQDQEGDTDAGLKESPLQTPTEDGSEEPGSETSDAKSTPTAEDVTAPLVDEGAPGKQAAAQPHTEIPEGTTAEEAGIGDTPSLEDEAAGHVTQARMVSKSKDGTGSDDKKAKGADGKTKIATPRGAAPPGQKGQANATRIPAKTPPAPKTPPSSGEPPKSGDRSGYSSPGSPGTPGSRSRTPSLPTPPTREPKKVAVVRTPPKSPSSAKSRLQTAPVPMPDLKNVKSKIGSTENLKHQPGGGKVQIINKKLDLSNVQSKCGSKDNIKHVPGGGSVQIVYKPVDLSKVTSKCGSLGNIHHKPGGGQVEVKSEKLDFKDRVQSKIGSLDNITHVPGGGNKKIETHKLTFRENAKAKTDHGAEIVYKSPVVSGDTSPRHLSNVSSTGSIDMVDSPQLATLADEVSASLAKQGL", "assay": "electrochemical aptasensor (DPV); aptamer on VG@Au electrode, MCH blocked; LOD 0.034 pg/mL, linear 0.1 pg/mL-1 ng/mL (not a Kd); Tau in PBS (10 mM, pH 7.4), 1 h at 37 C on electrode; DPV read in 5 mM Fe(CN)6 3-/4- with 0.1 M KCl", "conditions": "protein: commercial", "data": [{"binder": "tau DNA aptamer (ssDNA, 5' SH-(CH2)6 thiol linker) DNA: CAGCACCGTCAACTGAATGGGTTGGCCGGGCAGCGGGGGGTAGGCTGGTGATGCGATGGAGATGT", "values": [{"measurement": "binding result", "value": "binds"}]}]}
